Experimental data taken from publication PMC12636033, “Chemical Engineering of Transcription Factors Uncovered Cell-Permeable μMax Modulators”.

What follows are molecules tested against WT Max (synthetic µMax scaffold) (UniProt P61244 22-102) (assay: BLI; EMSA: 10 mM MES pH 6.0, 150 mM KCl, 1 mM MgCl2, 10% glycerol, room temperature, 1 uM DNA; BLI: global 1:1 fit, buffer not in material). Conditions: chain copies: 2.
WT Max (synthetic µMax scaffold), sequence (P61244 22-102): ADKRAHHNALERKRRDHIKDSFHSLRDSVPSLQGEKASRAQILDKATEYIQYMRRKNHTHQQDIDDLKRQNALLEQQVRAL

Molecule	Kd [nM]
E-box DNA probe (dsDNA) DNA 1: CCGGCTGACACGTGGTATTAAT DNA 2: ATTAATACCACGTGTCAGCCGG	8.1 ± 2.24

Each molecule was assayed against µMax20 (UniProt P61244) (assay: BLI). Conditions: EMSA: 10 mM MES pH 6.0, 150 mM KCl, 1 mM MgCl2, 10% glycerol, room temperature, 1 uM DNA; BLI: global 1:1 fit, buffer not in material.
µMax20, sequence (P61244 whole entry): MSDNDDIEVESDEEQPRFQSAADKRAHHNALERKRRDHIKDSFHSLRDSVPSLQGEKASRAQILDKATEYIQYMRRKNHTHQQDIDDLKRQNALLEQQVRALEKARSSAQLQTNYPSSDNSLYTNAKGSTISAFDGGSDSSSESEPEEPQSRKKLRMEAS

Molecule	Kd [nM]
CCGGCTGACACGTGGTATTAAT (double strand) [E-box DNA probe]	4.38

Each molecule was assayed against µMax H19Y (UniProt P61244 22-102, H28Y) (assay: EMSA; 3 uM protein, 1 uM DNA; EMSA: 10 mM MES pH 6.0, 150 mM KCl, 1 mM MgCl2, 10% glycerol, room temperature, 1 uM DNA; BLI: global 1:1 fit, buffer not in material). Conditions: chain copies: 2.
µMax H19Y, sequence (P61244 22-102 H28Y): as the sequence (P61244 22-102) above, with H7Y counted along it

Molecule	binding result
E-box DNA probe (dsDNA) DNA 1: CCGGCTGACACGTGGTATTAAT DNA 2: ATTAATACCACGTGTCAGCCGG	binds

What follows are molecules tested against WT Max (Homo sapiens, UniProt P61244-2 13-93, M65Nle, norleucine written as M; other non-natural residues written as X) (assay: PBM; 50-200 nM protein; PBS, 2% milk, BSA, salmon testes DNA, 0.02% Triton X-100). Conditions: chain copies: 2; label: surface-attached array probe.
WT Max, sequence (P61244 other isoform, or with tags, fused parts or gaps M65Nle): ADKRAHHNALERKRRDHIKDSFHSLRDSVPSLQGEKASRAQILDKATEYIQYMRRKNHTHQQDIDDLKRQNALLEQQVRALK

Molecule	binding signal
dBr_Jan07_01656 (dsDNA) DNA 1: TCGATCACACACGTGCTTATTGTACCAAACACATACGTCTGTGTTCCGTTGTCCGTGCTG DNA 2: CAGCACGGACAACGGAACACAGACGTATGTGTTTGGTACAATAAGCACGTGTGTGATCGA	3.68 robust z of log adjusted intensity (ours), mean of two arrays
dBr_Jan07_38976 (dsDNA) DNA 1: CGACACAGAAAACAATTCCGACTTGCTTTCCGCGTGGTCTGTGTTCCGTTGTCCGTGCTG DNA 2: CAGCACGGACAACGGAACACAGACCACGCGGAAAGCAAGTCGGAATTGTTTTCTGTGTCG	3.81 robust z of log adjusted intensity (ours), mean of two arrays
dBr_Jan07_04601 (dsDNA) DNA 1: GGTGTACGCTAAGGATGCTACTACGACCTAACACGTGTCTGTGTTCCGTTGTCCGTGCTG DNA 2: CAGCACGGACAACGGAACACAGACACGTGTTAGGTCGTAGTAGCATCCTTAGCGTACACC	3.7 robust z of log adjusted intensity (ours), mean of two arrays
dBr_Jan07_33198 (dsDNA) DNA 1: GCATAAACAAGGCCGCTGTAGCGGTTCGGTGCACGTGTCTGTGTTCCGTTGTCCGTGCTG DNA 2: CAGCACGGACAACGGAACACAGACACGTGCACCGAACCGCTACAGCGGCCTTGTTTATGC	3.33 robust z of log adjusted intensity (ours), mean of two arrays
dBr_Jan07_01852 (dsDNA) DNA 1: AGGAGTCTTGCCGCACGGTCCCCGTCTTATGCACGTGTCTGTGTTCCGTTGTCCGTGCTG DNA 2: CAGCACGGACAACGGAACACAGACACGTGCATAAGACGGGGACCGTGCGGCAAGACTCCT	3.5 robust z of log adjusted intensity (ours), mean of two arrays
dBr_Jan07_31967 (dsDNA) DNA 1: GTGTCACGTGTCGTTCATCCTTATTAACTAGGGTCTGTCTGTGTTCCGTTGTCCGTGCTG DNA 2: CAGCACGGACAACGGAACACAGACAGACCCTAGTTAATAAGGATGAACGACACGTGACAC	3.79 robust z of log adjusted intensity (ours), mean of two arrays
dBr_Jan07_40162 (dsDNA) DNA 1: CCTTGAACCATTAGCACGTGGATATATAAATCTTACGTCTGTGTTCCGTTGTCCGTGCTG DNA 2: CAGCACGGACAACGGAACACAGACGTAAGATTTATATATCCACGTGCTAATGGTTCAAGG	3.32 robust z of log adjusted intensity (ours), mean of two arrays
dBr_Jan07_06713 (dsDNA) DNA 1: AGTAACGGGGTCGCTTGATGGGCTCTTCCGCGTGGAGTCTGTGTTCCGTTGTCCGTGCTG DNA 2: CAGCACGGACAACGGAACACAGACTCCACGCGGAAGAGCCCATCAAGCGACCCCGTTACT	3.79 robust z of log adjusted intensity (ours), mean of two arrays
dBr_Jan07_37076 (dsDNA) DNA 1: AAAACGTTCCGAGCCATTTAGAAGGGGTCACGTGATGTCTGTGTTCCGTTGTCCGTGCTG DNA 2: CAGCACGGACAACGGAACACAGACATCACGTGACCCCTTCTAAATGGCTCGGAACGTTTT	3.31 robust z of log adjusted intensity (ours), mean of two arrays
dBr_Jan07_24740 (dsDNA) DNA 1: ATAGAGCGTCAGAATAGTGACATACACGTGGTCCCCGTCTGTGTTCCGTTGTCCGTGCTG DNA 2: CAGCACGGACAACGGAACACAGACGGGGACCACGTGTATGTCACTATTCTGACGCTCTAT	3.51 robust z of log adjusted intensity (ours), mean of two arrays
dBr_Jan07_34030 (dsDNA) DNA 1: GAACGAGGGACCGCTAGGATGCCACGTGATTAAAGTGTCTGTGTTCCGTTGTCCGTGCTG DNA 2: CAGCACGGACAACGGAACACAGACACTTTAATCACGTGGCATCCTAGCGGTCCCTCGTTC	3.45 robust z of log adjusted intensity (ours), mean of two arrays
dBr_Jan07_17964 (dsDNA) DNA 1: ACTTGAATGAGGGCCTTTGATCTGCTTTACTCACGTGTCTGTGTTCCGTTGTCCGTGCTG DNA 2: CAGCACGGACAACGGAACACAGACACGTGAGTAAAGCAGATCAAAGGCCCTCATTCAAGT	3.59 robust z of log adjusted intensity (ours), mean of two arrays
dBr_Jan07_23401 (dsDNA) DNA 1: TCTATGCTCGCGGATGCCCTTAAACTAGGCACGTGTGTCTGTGTTCCGTTGTCCGTGCTG DNA 2: CAGCACGGACAACGGAACACAGACACACGTGCCTAGTTTAAGGGCATCCGCGAGCATAGA	3.69 robust z of log adjusted intensity (ours), mean of two arrays
dBr_Jan07_19348 (dsDNA) DNA 1: ACCTCTGTAAGTCTGAGTCTGATAACCACGTGTCGGGTCTGTGTTCCGTTGTCCGTGCTG DNA 2: CAGCACGGACAACGGAACACAGACCCGACACGTGGTTATCAGACTCAGACTTACAGAGGT	5.01 robust z of log adjusted intensity (ours), mean of two arrays
dBr_Jan07_31500 (dsDNA) DNA 1: CTCCGTGGGTTCGTGAGTTCATGGCGAAAAGCACGTGTCTGTGTTCCGTTGTCCGTGCTG DNA 2: CAGCACGGACAACGGAACACAGACACGTGCTTTTCGCCATGAACTCACGAACCCACGGAG	4.51 robust z of log adjusted intensity (ours), mean of two arrays
